Measurements: patent publication US8129336B1, “Inhibitor of the uracil-DNA glycosylase enzyme and uses thereof” (Consejo Superior de Investigaciones Cientificas, priority 2005, dated 2012)
“Also recorded” adds a separate entry of the source.

Assays:
[1] = biological target: human UNG2 enzyme (Homo sapiens, UniProt P13051); details: cited from earlier work
[2] = biological target: T1, UDG of B. subtilis (Bacillus subtilis, UniProt P39615); assay: Affinity chromatography on anti-FLAG M2 column, co-elution with p56FLAG; assay type: binding; details: extract of B. subtilis 110NA[pPR53.p56FLAG]; elution with FLAG peptide; peptide mass fingerprinting
T1 construct: endogenous in cells; host or cells: B. subtilis 110NA [pPR53.p56FLAG] lysate; UDG is the cell's own protein; only p56FLAG is plasmid-encoded
T1 sequence (P39615 whole entry, looked up): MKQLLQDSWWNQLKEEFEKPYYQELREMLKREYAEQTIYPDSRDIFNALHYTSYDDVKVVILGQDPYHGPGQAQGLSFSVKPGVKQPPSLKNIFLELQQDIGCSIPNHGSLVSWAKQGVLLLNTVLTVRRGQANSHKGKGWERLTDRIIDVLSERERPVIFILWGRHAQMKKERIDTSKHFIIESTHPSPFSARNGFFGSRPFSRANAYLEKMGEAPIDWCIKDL
Procedure: In order to analyse whether the UDG enzyme is a cellular target of protein p56, affinity chromatography assays were performed. Briefly, the B. subtilis 110NA [pPR53.p56FLAG] strain was grown in LB medium with phleomycin (0.8 μg/ml) at 30° C. to an OD560 equivalent to 10^8 viable cells per ml. The culture was concentrated 10-fold in TBS buffer (50 mM Tris-HCl, pH 7.5, 150 mM NaCl) and was lysed using the French press (20,000 psi). The lysate was centrifuged at 7,000 rpm and 4° C. in the Sorvall-SS.34 rotor for 10 minutes. The supernatant was loaded in an anti-FLAG M2 column (Sigma). The proteins bound to the column were eluted with the TBS buffer containing the FLAG peptide (500 μg/ml) (Sigma). The eluted proteins were precipitated with acetone, re-suspended in the loading buffer (60 mM Tris-HCl, pH 6.8, 2% SDS, 5% β-mercaptoethanol, 30% glycerol) and separated by electrophoresis in polyacrylamide/Tricine/SDS gels (Schagger and von Jagow (1987) Anal. Biochem. 166: 368-379). The gel was stained with SyproRuby (Molecular Probes). As a negative control, an extract from the 110NA[pPR53] strain was used. In a second experiment, protein p56 (2 μg) was incubated with the UDG enzyme of E. coli (0.2 μg, New England Biolabs). After 15 minutes at ambient temperature, the reaction was analysed by electrophoresis in native polyacrylamide gels (16%). The gel was stained with SpyroRuby.

Sequence of human UNG2 enzyme (P13051 whole entry): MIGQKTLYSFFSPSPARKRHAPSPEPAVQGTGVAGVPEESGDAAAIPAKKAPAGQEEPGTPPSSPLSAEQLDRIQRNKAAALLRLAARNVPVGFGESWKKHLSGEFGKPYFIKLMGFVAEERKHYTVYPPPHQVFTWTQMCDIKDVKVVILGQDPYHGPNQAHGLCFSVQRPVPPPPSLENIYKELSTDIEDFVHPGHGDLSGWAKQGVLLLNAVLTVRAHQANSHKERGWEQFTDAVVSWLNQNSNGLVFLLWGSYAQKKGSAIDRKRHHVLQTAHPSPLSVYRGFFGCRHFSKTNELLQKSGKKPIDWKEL

B1: UGI: UGI protein encoded by the PBS2 bacteriophage, known inhibitor of UDG (protein, UniProt P14739 1-84, looked up)
Uracil-DNA glycosylase …: MTNLSDIIEKETGKQLVIQESILMLPEEVEEVIGNKPESDILVHTAYDESTDENVMLLTSDAPEYKPWALVIQDSNGENKIKML
- blocking of UDG activity of human UNG2 [1]: blocks the UDG activity of the human UNG2 enzyme

B2: p56FLAG: p56 protein that contains amino acid sequence DYKDDDDK (FLAG peptide) fused to the C-terminal end (protein)
chain: MVQNDFVDSYDVTMLLQDDDGKQYYEYHKGLSLSDFEVLYGNTADEIIKLRLDKVLDYKDDDDK
- interaction / co-elution with UDG enzyme [2]: protein D was identified to be the UDG enzyme; also recorded: interacts with the UDG enzyme
